We go through six molecules from article PMC6530996, “HspB1 phosphorylation regulates its intramolecular dynamics and mechanosensitive molecular chaperone interaction with filamin C” (Science Advances, 2019).

Non-standard residues stand in square brackets, D forms with d. No end group written: not given here. pS = N[C@@H](COP(=O)(O)O)C(=O)O

In one series the test system is HspB1_84–170. As to the kind of experiment: crystal structure of HspB1_84–170 with PPR peptide. The class given is binding, human. To be noted: X-ray, 5 mM peptide, space group P12_11, 2.1 Å. An excerpt: We next carried out crystallographic trials, using a strategy of mixing peptide mimics of the PPR, varying in length and degree of phosphorylation, with a well-ordered ACD construct (HspB1_84–170). […] The monomers within each dimer differ at their N-terminal ends: The β2 strand of one is intramolecularly hydrogen-bonded to its own β3 strand, whereas in the other these residues are extended and stabilized by contacts with a β4-β8 groove of a neighboring dimer (Fig. 3, A and B). This groove also acts as a binding pocket for an intrasubunit interface within the C-terminal region (fig. S4B) ([29]).
Crystals were obtained following initial screens using HspB1_84–170 (18 mg ml^−1) with a fourfold molar excess of one of several peptide mimics of the N-terminal region varying in length and degree of phosphorylation. […]
Diffraction data were integrated using iMosflm and scaled and merged using Aimless in the CCP4 suite with truncation at 2.1 Å. Phases were determined by molecular replacement using Phaser with a previous HspB1 x-ray structure input as a search model (PDB 4MJH, modified by removal of flexible loops, bound C-terminal peptide, and β2 strands). […]

Series [1] has as its target filamin C (FLNC) domains 18-21, 1943-2408 (UniProt Q14315). As to the kind of experiment: gas-phase collisional dissociation, tandem native MS. As to conditions: reference: unphosphorylated HspB1 80-88 peptide; sites S82.
The nature of series [2]: native MS of HspB1_77–171 oligomeric state. The class given is physicochemical. To be noted: 10 μM, 200 mM ammonium acetate pH 6.9, 10-fold molar excess DTT. From the text: To test this hypothesis, we recorded mass spectra under conditions preserving noncovalent interactions. […] The combined NMR and mass spectrometry (MS) data are therefore consistent with phosphorylation modulating an order-to-disorder transition by β2 and the PPR that leads to oligomer dissociation via rearrangement of intradimer contacts.
A pET28d(+) vector encoding human HspB1 ACD (residues 84 to 171) was transformed into Escherichia coli BL21(DE3) cells (Agilent) and expressed and purified as described previously ([29]). For crystallography, residue K171 was deleted using a site-directed mutagenesis kit (Agilent) and HspB1_84–170 was expressed and purified as described. […] Concentrations were determined by using a bicinchoninic acid assay (Thermo Pierce).
Because HspB1 can form disulfide-linked dimers, experiments involving the ACD were performed in the presence of 10-fold molar excess DTT. […] Native MS and IM-MS data were recorded on a Synapt G1 mass spectrometer (Waters) modified for the transmission of intact noncovalent protein complexes. HspB1_77–171 variants were analyzed at a concentration of 10 μM in 200 mM ammonium acetate (pH 6.9). […]

In series [3] the target is T1, FLNC_(d18–21,ΔI), FLNC domains 18 to 21 lacking the d20 insertion (human, UniProt Q14315 1943-2408, excluding 2163 to 2243).
T1 construct: human filamin C, residues 1943 to 2408 of UniProt Q14315 excluding 2163 to 2243; The results speak of 82 insertion residues; 2163 to 2243 are 81; source: E. coli BL21(DE3) pLysS, purified (HisTrap, SEC Superdex 200)
T1 sequence (looked up): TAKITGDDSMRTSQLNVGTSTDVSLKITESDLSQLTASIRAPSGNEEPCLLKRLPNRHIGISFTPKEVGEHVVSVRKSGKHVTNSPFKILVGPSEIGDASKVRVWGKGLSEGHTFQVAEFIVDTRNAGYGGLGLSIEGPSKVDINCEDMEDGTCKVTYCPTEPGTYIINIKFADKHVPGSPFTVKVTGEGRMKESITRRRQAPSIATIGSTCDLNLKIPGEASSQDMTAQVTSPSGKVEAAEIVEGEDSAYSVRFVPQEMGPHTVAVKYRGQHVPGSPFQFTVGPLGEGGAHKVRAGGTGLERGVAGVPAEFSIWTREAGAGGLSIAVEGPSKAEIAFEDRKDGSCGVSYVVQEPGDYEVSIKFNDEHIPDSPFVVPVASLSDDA
As to the kind of experiment: native MS; native IM-MS of mixtures of FLNC_(d18–21) or FLNC_(d18–21,ΔI) with HspB1_(84–171), HspB1 peptides or an excess of control peptides; 200 mM ammonium acetate pH 6.9. To be noted: both partners purified.

In series [4] the target is T2, human FLNC domains 18 to 21 (FLNC_(d18–21)), EEF-tagged (human, UniProt Q14315 1943-2408).
T2 construct: human filamin C, domains 18 to 21, residues 1943 to 2408 of UniProt Q14315; Modified pET23a/EEF vector; No cleavage of the tags is described; also called FLNC fragment; source: E. coli BL21(DE3) pLysS, purified (HisTrap, SEC Superdex 200); not shown: EEF, C-terminal, kept
T2 sequence (looked up): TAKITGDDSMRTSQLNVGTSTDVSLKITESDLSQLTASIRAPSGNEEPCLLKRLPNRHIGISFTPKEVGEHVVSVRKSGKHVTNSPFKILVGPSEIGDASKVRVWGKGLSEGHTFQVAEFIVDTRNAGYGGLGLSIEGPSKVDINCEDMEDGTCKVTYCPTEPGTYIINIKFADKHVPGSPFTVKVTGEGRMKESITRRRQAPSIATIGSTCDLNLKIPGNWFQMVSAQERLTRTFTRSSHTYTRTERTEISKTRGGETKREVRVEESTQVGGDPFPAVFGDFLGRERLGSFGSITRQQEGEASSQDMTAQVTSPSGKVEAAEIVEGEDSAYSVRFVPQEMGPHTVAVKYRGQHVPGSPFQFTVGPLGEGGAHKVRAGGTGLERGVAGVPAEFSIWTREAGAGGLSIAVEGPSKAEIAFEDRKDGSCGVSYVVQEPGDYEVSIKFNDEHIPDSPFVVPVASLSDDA
Described as above. As to conditions: both partners purified.

Series [5] addresses T2, human FLNC domains 18 to 21 …. The experiment in a line: cell-based or functional assay.
Series [6] has the same target. As to the kind of experiment: native MS; titration: FLNC_(d18–21) constant at 5 μM, peptide 5 to 160 μM, 200 mM ammonium acetate pH 6.9, acetonitrile vapor; fit with three equivalent binding sites (UniDec). To be noted: both partners purified.
In series [7] the target is T3, HspB1_(84–170), ACD construct for crystallography (human, UniProt P04792 84-170).
T3 construct: human HspB1 ACD, residues 84 to 170 (K171 deleted from the 84-171 construct); Dimer in the crystal (four dimers in the asymmetric unit); The residual Gly-Ser overhang that the methods tell of 'both proteins' may also stand on this construct; also called HspB1 ACD
As to the kind of experiment: crystal structure; HspB1_(84–170) 16 mg/ml with 5 mM peptide in PBS pH 7.0; 22% PEG 3350, 0.02 M sodium potassium diphosphate, 0.1 M bis-tris propane pH 7.5; 2.1 Å, space group P12_(1)1. As to conditions: both partners purified.

T3 sequence (P04792 84-170): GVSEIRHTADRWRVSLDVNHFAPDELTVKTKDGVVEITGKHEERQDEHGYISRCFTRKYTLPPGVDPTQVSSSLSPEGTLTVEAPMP
Sequence of filamin C (FLNC) domains 18-21, 1943-2408 (Q14315 whole entry, looked up, tested part not stated): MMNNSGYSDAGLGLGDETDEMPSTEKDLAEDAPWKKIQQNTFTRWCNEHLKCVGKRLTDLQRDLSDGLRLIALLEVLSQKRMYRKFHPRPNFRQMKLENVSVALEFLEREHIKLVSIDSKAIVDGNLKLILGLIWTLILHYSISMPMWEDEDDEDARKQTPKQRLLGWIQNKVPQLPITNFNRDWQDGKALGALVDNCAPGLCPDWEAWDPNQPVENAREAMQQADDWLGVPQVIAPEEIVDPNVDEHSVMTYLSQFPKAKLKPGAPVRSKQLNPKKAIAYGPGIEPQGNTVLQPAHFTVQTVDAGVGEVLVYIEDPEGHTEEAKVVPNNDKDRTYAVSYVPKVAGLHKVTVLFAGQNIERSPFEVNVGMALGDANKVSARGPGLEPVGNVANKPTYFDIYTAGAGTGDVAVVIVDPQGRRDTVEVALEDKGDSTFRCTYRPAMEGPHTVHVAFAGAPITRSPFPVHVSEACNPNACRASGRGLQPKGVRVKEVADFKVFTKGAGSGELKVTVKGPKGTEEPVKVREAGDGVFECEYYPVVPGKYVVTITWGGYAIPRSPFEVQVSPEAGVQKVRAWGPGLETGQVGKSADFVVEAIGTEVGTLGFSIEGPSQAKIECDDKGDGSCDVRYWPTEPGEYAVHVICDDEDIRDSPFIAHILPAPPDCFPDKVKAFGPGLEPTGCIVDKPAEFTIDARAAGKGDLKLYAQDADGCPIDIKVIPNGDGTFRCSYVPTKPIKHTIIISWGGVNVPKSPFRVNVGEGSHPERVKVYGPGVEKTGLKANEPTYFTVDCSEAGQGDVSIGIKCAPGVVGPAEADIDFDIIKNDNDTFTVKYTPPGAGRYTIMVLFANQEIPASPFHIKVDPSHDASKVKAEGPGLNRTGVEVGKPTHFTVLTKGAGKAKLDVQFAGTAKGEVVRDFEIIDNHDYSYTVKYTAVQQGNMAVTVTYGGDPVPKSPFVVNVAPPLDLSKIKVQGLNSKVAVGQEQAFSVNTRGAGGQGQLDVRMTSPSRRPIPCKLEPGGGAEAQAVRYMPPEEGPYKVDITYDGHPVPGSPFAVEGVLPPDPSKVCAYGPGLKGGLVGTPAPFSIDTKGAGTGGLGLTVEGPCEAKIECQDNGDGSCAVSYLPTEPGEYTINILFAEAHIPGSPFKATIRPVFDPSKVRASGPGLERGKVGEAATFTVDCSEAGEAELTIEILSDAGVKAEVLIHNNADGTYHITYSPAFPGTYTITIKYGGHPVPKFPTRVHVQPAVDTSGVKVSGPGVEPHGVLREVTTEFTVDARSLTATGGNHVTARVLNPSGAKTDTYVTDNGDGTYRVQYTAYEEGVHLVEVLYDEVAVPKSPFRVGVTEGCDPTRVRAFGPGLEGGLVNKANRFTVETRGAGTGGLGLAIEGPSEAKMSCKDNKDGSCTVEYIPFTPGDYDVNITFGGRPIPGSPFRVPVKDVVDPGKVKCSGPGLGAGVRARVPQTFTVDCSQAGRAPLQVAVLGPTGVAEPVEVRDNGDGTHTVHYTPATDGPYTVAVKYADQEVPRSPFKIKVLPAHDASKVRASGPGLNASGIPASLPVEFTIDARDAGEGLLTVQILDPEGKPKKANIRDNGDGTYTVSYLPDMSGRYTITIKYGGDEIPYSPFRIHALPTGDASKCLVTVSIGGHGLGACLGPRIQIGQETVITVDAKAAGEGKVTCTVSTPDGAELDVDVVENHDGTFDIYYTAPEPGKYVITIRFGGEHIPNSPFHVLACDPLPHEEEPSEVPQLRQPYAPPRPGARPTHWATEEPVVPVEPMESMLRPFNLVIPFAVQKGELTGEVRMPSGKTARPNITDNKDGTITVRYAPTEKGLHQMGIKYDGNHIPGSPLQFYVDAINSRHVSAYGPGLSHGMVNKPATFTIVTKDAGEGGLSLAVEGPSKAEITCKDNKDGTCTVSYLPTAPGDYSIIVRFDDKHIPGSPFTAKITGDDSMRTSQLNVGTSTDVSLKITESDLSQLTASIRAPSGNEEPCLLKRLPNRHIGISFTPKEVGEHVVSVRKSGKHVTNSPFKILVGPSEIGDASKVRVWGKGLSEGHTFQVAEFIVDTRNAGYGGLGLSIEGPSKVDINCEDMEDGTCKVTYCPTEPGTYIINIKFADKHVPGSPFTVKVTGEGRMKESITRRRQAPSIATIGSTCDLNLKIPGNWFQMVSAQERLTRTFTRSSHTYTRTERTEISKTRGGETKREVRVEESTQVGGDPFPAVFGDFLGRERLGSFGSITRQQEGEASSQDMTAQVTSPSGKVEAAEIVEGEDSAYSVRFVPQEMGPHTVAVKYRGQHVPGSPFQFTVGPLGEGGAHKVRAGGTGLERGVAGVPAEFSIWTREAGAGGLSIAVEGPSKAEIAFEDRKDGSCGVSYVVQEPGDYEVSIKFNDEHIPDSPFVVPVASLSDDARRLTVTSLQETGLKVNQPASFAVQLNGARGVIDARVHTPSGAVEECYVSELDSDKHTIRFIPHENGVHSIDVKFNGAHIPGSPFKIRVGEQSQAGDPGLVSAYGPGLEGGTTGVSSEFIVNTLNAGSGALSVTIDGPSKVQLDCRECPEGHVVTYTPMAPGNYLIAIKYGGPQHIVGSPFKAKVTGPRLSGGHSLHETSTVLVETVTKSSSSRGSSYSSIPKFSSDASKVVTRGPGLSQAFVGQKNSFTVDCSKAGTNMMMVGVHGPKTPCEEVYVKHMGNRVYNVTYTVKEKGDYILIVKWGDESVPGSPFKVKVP

In the case of “ALSRQL^PSSGVSEI [^P82HspB1_76–88, Peptide from human HspB1 phosphorylated at S82, captured in part in crystal structure]”, the “binding to HspB1_84–170 in crystal” value with HspB1_84–170 is “structure of HspB1_84–170 bound to ALSRQL^PSSGVSEI”. “HspB1 (Hsp27) 80-88 (from UniProt P04792) pS82 HspB1 80-88 peptide”: in series [1], the “other: inflection point(s) of breakdown curve” value was “stronger; reference ≈55 and ≈110”. On to “HspB1_77–171: Human HspB1 ACD extended at the N-terminus to encompass the principle phosphorylation region (PPR)”, for which, in series [2], the oligomeric state entry is “populates a monomer-dimer equilibrium”.

Take “^2PHspB1_77–171: Human HspB1 ACD and PPR with phosphomimic substitutions S78E and S82D”: the oligomeric state entry in series [2] was “phosphomimicry shifts the oligomeric state toward the monomer”.

B1: HspB1_(80–88) peptide (peptide, UniProt P04792 80-88, looked up)
peptide: QLSSGVSEI
notes: The methods say that N termini were acetylated 'when the N-terminal residue was Glu'; this peptide begins with Gln, so whether it was acetylated is open; also called unphosphorylated peptide; source: synthetic peptide, bought: Biomatik
By stoichiometry N is commonly meant the number of molecules, sites or subunits per partner or assembly. By Kd is commonly meant the free concentration of one partner at which half of the binding sites on the other are occupied at equilibrium, for simple one-to-one binding. Turning to B1, in series [3], the binding result is listed as “binds”. In addition, the “stoichiometry N” value in series [4] was at most 2. Further, in series [5], the “activation required for the transition of unfolding intermediate B to final state C of FLNC_(d18–21) with one peptide bound (coulombically steered unfolding, IM-MS)” value is around 60 V. In addition, in series [6], the Kd amounted to 130 ± 17 µM and the “stoichiometry N” value is at most 3.

B2: ^P82HspB1_(76–88), peptide mimic of the PPR phosphorylated at Ser82 (peptide)
peptide: ALSRQL[pS]SGVSEI
notes: human HspB1 residues 76 to 88; Only 3 to 6 residues of the peptide could be built in the density; also called PPR peptide; source: synthetic peptide, bought: Biomatik
Regarding B2, the binding result in series [7] is reported as “binds”.
